Data set [1] addresses von Willebrand factor purified from human plasma cryoprecipitate (UniProt P04275).
Data set [2] addresses von Willebrand factor purified from human plasma cryoprecipitate, P04275.

Consider “W897stop variant of the vWF-cleaving protease (lacking the region between the C-terminus and position W897)”, for which, in data set [1], the “vWF-cleaving activity (qualitative)” value was “a variant lacking a region between the C-terminus and the position W897 was found to have activity, although it was the result of qualitative analysis”.

B1: vWF-cleaving protease derived from human plasma (protein)
chain: AAGGILHLELLVAVGPDVFQAHQEDTERYVLTNLNIGAELLRDPSLGAQFRVHLVKMVILTEPEGAPNITANLTSSLLSVCGWSQTINPEDDTDPGHADLVLYITRFDLELPDGNRQVRGVTQLGGACSPTWSCLITEDTGFDLGVTIAHEIGHSFGLEHDGAPGSGCGPSGHVMASDGAAPRAGLAWSPCSRRQLLSLLSAGRARCVWDPPRPQPGSAGHPPDAQPGLYYSANEQCRVAFGPKAVACTFAREHLDMCQALSCHTDPLDQSSCSRLLVPLLDGTECGVEKWCSKGRCRSLVELTPIAAVHGRWSSWGPRSPCSRSCGGGVVTRRRQCNNPRPAFGGRACVGADLQAEMCNTQACEKTQLEFMSQQCARTDGQPLRSSPGGASFYHWGAAVPHSQGDALCRHMCRAIGESFIMKRGDSFLDGTRCMPSGPREDGTLSLCVSGSCRTFGCDGRMDSQQVWDRCQVCGGDNSTCSPRKGSFTAGRAREYVTFLTVTPNLTSVYIANHRPLFTHLAVRIGGRYVVAGKMSISPNTTYPSLLEDGRVEYRVALTEDRLPRLEEIRIWGPLQEDADIQVYRRYGEEYGNLTRPDITFTYFQPKPRQAWVWAAVRGPCSVSCGAGLRWVNYSCLDQARKELVETVQCQGSQQPPAWPEACVLEPCPPYWAVGDFGPCSASCGGGLRERPVRCVEAQGSLLKTLPPARCRAGAQQPAVALETCNPQPCPARWEVSEPSSCTSAGGAGLALENETCVPGADGLEAPVTEGPGSVDEKLPAPEPCVGMSCPPGWGHLDATSAGEKAPSPWGSIRTGAQAAHVWTPAAGSCSVSCGRGLMELRFLCMDSALRVPVQEELCGLASKPGSRREVCQAVPCPARWQYKLAACSVSCGRGVVRRILYCARAHGEDDGEEILLDTQCQGLPRPEPQEACSLEPCPPRWKVMSLGPCSASCGLGTARRSVACVQLDQGQDVEVDEAACAALVRPEASVPCLIADCTYRWHVGTWMECSVSCGDGIQRRRDTCLGPQAQAPVPADFCQHLPKPVTVRGCWAGPCVGQGTPSLVPHEEAAAPGRTTATPAGASLEWSQARGLLFSPAPQPRRLLPGPQENSVQSSACGRQHLEPTGTIDMRGPGQADCAVAIGRPLGEVVTLRVLESSLNCSAGDMLLLWGRLTWRKMCRKLLDMTFSSKTNTLVVRQRCGRPGGGVLLRYGSQLAPETFYRECDMQLFGPWGEIVSPSLSPATSNAGGCRLFINVAPHARIAIHALATNMGAGTEGANASYILIRDTHSLRTTAFHGQQVLYWESESSQAEMEFSEGFLKAQASLRGQYWTLQSWVPEMQDPQSWKGKEGT
For the molecule B1, the vWF-cleaving activity result in data set [2] was “activity derived from the cryoprecipitate and the FI paste were found to cleave the peptide bond between residues Tyr 842 and Met 843”.

The values above are taken from US20040214275.
